The results in this text go back to PMC4970216.

Substrate in the data set: C[C@]12CC[C@@H]3c4ccc(O)cc4CC[C@H]3[C@@H]1CC[C@@H]2O[C@@H]1O[C@H](C(=O)O)[C@@H](O)[C@H](O)[C@H]1O
In words: cells, lysate or membranes. The data set is classed as cell-based, Homo sapiens.

B1: Organic anion transporting polypeptide (OATP) 1B1 (Homo sapiens) (protein)
chain: MDQNQHLNKTAEAQPSENKKTRYCNGLKMFLAALSLSFIAKTLGAIIMKSSIIHIERRFEISSSLVGFIDGSFEIGNLLVIVFVSYFGSKLHRPKLIGIGCFIMGIGGVLTALPHFFMGYYRYSKETNINSSENSTSTLSTCLINQILSLNRASPEIVGKGCLKESGSYMWIYVFMGNMLRGIGETPIVPLGLSYIDDFAKEGHSSLYLGILNAIAMIGPIIGFTLGSLFSKMYVDIGYVDLSTIRITPTDSRWVGAWWLNFLVSGLFSIISSIPFFFLPQTPNKPQKERKASLSLHVLETNDEKDQTANLTNQGKNITKNVTGFFQSFKSILTNPLYVMFVLLTLLQVSSYIGAFTYVFKYVEQQYGQPSSKANILLGVITIPIFASGMFLGGYIIKKFKLNTVGIAKFSCFTAVMSLSFYLLYFFILCENKSVAGLTMTYDGNNPVTSHRDVPLSYCNSDCNCDESQWEPVCGNNGITYISPCLAGCKSSSGNKKPIVFYNCSCLEVTGLQNRNYSAHLGECPRDDACTRKFYFFVAIQVLNLFFSALGGTSHVMLIVKIVQPELKSLALGFHSMVIRALGGILAPIYFGALIDTTCIKWSTNNCGTRGSCRTYNSTSFSRVYLGLSSMLRVSSLVLYIILIYAMKKKYQEKDINASENGSVMDEANLESLNKNKHFVPSAGADSETHC
In the case of B1, the Km came to 7.20 ± 0.57 µM.
